Source: US7205387B2, “Recombinant polypeptide useful for neurotrophin receptor mediated gene delivery and as neurotrophin agonist” (Agency for Science, Technology and Research, priority 2003, dated 2007)

Tested on: plasmid DNA
Experiment: DNA retardation assay (agarose gel electrophoresis)
Type: binding
Procedure: This assay qualitatively assesses the ability of a polypeptide or polycation to bind to DNA and thus to retard its migration (by decreasing its charge/mass ratio) through an agarose gel under electrophoresis. For a range of N/P ratios, polypeptide was added to 0.1 μg of plasmid DNA made up to 20 μl with either HEPES-buffered saline (HBS, 150 mM NaCl, 29 mM HEPES, pH 7.3) or 5% glucose. The mixtures were vortexed and incubated at room temperature for 30 minutes before being subjected to electrophoresis in a 0.8–1.0% Tris-borate-EDTA agarose gel stained with ethidium bromide for visualization under ultraviolet light.

B1: SPKR4NL1-2: chimeric protein: (SPKR)4 DNA-binding domain, α-helical linker, targeting domain with loops 1 and 2 of NGF (aa 17–67), His10 tag (protein)
chain: MGHHHHHHHHHHSSGHIEGRHMSPKRSPKRSPKRSPKRGGTYLSEDELKAAEAAFKRHNPTGSCSVSVWVGDKTTATDIKGKEVMVLGEVNINNSVFKQYFFETKCRDPNPVDSG
modifications: SPKR4NL1-2
For B1, the “DNA binding / retardation of DNA migration (in words)” value was “reduced the mobility of DNA”.
